Assay results reported in article doi:10.1101/2021.07.09.451751v1.

B1: ProS2-fused human PMS2 NTD (Homo sapiens; K91R) (protein)
chain: MERAESSSTEPAKAIKPIDRKSVHQICSGQVVLSLSTAVKELVENSLDAGATNIDLKLKDYGVDLIEVSDNGCGVEEENFEGLTLKHHTSRIQEFADLTQVETFGFRGEALSSLCALSDVTISTCHASAKVGTRLMFDHNGKIIQKTPYPRPRGTTVSVQQLFSTLPVRHKEFQRNIKKEYAKMVQVLHAYCIISAGIRVSCTNQLGQGKRQPVVCTGGSPSIKENIGSVFGQKQLQSLIPFVQLPPSDSVCEEYGLSCSDALHNLFYISGFISQCTHGVGRSSTDRQFFFINRRPCDPAKVCRLVNEVYHMYNRHQYPFVVLNISVDSECVDINVTPDKRQILLQEEKLLLAVLKTSLIGMFDS
B2: ProS2-fused human PMS2 NTD (Homo sapiens; K340A) (protein)
chain: MERAESSSTEPAKAIKPIDRKSVHQICSGQVVLSLSTAVKELVENSLDAGATNIDLKLKDYGVDLIEVSDNGCGVEEENFEGLTLKHHTSKIQEFADLTQVETFGFRGEALSSLCALSDVTISTCHASAKVGTRLMFDHNGKIIQKTPYPRPRGTTVSVQQLFSTLPVRHKEFQRNIKKEYAKMVQVLHAYCIISAGIRVSCTNQLGQGKRQPVVCTGGSPSIKENIGSVFGQKQLQSLIPFVQLPPSDSVCEEYGLSCSDALHNLFYISGFISQCTHGVGRSSTDRQFFFINRRPCDPAKVCRLVNEVYHMYNRHQYPFVVLNISVDSECVDINVTPDARQILLQEEKLLLAVLKTSLIGMFDS
B3: ProS2-fused human PMS2 NTD (Homo sapiens; K340E) (protein)
chain: MERAESSSTEPAKAIKPIDRKSVHQICSGQVVLSLSTAVKELVENSLDAGATNIDLKLKDYGVDLIEVSDNGCGVEEENFEGLTLKHHTSKIQEFADLTQVETFGFRGEALSSLCALSDVTISTCHASAKVGTRLMFDHNGKIIQKTPYPRPRGTTVSVQQLFSTLPVRHKEFQRNIKKEYAKMVQVLHAYCIISAGIRVSCTNQLGQGKRQPVVCTGGSPSIKENIGSVFGQKQLQSLIPFVQLPPSDSVCEEYGLSCSDALHNLFYISGFISQCTHGVGRSSTDRQFFFINRRPCDPAKVCRLVNEVYHMYNRHQYPFVVLNISVDSECVDINVTPDERQILLQEEKLLLAVLKTSLIGMFDS
B4: histidine-tagged human MLH1 NTD (Homo sapiens; K311E) (protein)
chain: MSFVAGVIRRLDETVVNRIAAGEVIQRPANAIKEMIENCLDAKSTSIQVIVKEGGLKLIQIQDNGTGIRKEDLDIVCERFTTSKLQSFEDLASISTYGFRGEALASISHVAHVTITTKTADGKCAYRASYSDGKLKAPPKPCAGNQGTQITVEDLFYNIATRRKALKNPSEEYGKILEVVGRYSVHNAGISFSVKKQGETVADVRTLPNASTVDNIRSIFGNAVSRELIEIGCEDKTLAFKMNGYISNANYSVKKCIFLLFINHRLVESTSLRKAIETVYAAYLPKNTHPFLYLSLEISPQNVDVNVHPTEHEVHFLHEESILERVQQHIESKLLG
B5: full-length aqMutL (Aquifex aeolicus VF5) (protein)
chain: MFVKLLPPEVRKVIAAGEVIESPVDVVKELVENSLDAKATKVEVEIVKGGKRLIRVKDNGTGIHPEDVEKVVLQGATSKIETEKDLMNISTYGFRGEALYSISSVSKFKLRSRFFQEKEGKEIEVEAGNILGTRRVGMPVGTEVEVRDLFFNLPVRRKFLKKEDTERRKVLELIKEYALTNPEVEFTLFSEGRETLKLKKSSLKERVEEVFQTKTEELYAEREGITLRAFVSRNQRQGKYYVFINKRPIQNKNLKEFLRKVFGYKTLVVLYAELPPFMVDFNVHPKKKEVNILKERKFLELVRELAGKEKPIVDIPLSQPVKTYKPTYEILGQMDETFILVKDSEYLYFVDQHLLEERINYEKLKDENLACRISVKAGQKLSEEKIRELIKTWRNLENPHVCPHGRPIYYKIPLREIYEKVGRNY
B6: aqGyrB NTD (Aquifex aeolicus VF5) (protein)
chain: MKKRQSQTPQEYTAEAIKAVSGLEHVRLRPAMYIGDIGERGLHHLIWEILDNAVDEAVAGYARNISVTIHRDNSVTVEDDGRGIPVDIHPETGKPAVEMVFTMLGAGGKFEKKVYTYSGGLHGVGASVVNALSEWLIVEVYRDGKIYRMAFKRGEVVEPLHVVGETKKRGTKVSFKPDPEIFETTEIKFDIVEKRVRELAYLNPEVKFELTDERLGKHLIYKFDRGIEELVKYLNEGKEPLFKDIIRIQGEKEGVIVDIAFQYVKDYKERIESFVNNIKTVEGGTHVTGFRSGLSKAVIRMAQGLKLAKELKKSFTGEDVREGLTAVVACKVPNPQFEGQTKTKLGNQNVKQIVESITYDFLTSYFEKKRDVLKAIVEKAIEAALAREAAKKAKELV
B7: ProS2-fused human PMS2 NTD (Homo sapiens) (protein)
chain: MERAESSSTEPAKAIKPIDRKSVHQICSGQVVLSLSTAVKELVENSLDAGATNIDLKLKDYGVDLIEVSDNGCGVEEENFEGLTLKHHTSKIQEFADLTQVETFGFRGEALSSLCALSDVTISTCHASAKVGTRLMFDHNGKIIQKTPYPRPRGTTVSVQQLFSTLPVRHKEFQRNIKKEYAKMVQVLHAYCIISAGIRVSCTNQLGQGKRQPVVCTGGSPSIKENIGSVFGQKQLQSLIPFVQLPPSDSVCEEYGLSCSDALHNLFYISGFISQCTHGVGRSSTDRQFFFINRRPCDPAKVCRLVNEVYHMYNRHQYPFVVLNISVDSECVDINVTPDKRQILLQEEKLLLAVLKTSLIGMFDS
B8: histidine-tagged human MLH1 NTD (Homo sapiens) (protein)
chain: MSFVAGVIRRLDETVVNRIAAGEVIQRPANAIKEMIENCLDAKSTSIQVIVKEGGLKLIQIQDNGTGIRKEDLDIVCERFTTSKLQSFEDLASISTYGFRGEALASISHVAHVTITTKTADGKCAYRASYSDGKLKAPPKPCAGNQGTQITVEDLFYNIATRRKALKNPSEEYGKILEVVGRYSVHNAGISFSVKKQGETVADVRTLPNASTVDNIRSIFGNAVSRELIEIGCEDKTLAFKMNGYISNANYSVKKCIFLLFINHRLVESTSLRKAIETVYAAYLPKNTHPFLYLSLEISPQNVDVNVHPTKHEVHFLHEESILERVQQHIESKLLG
B9: full-length aqMutL (Aquifex aeolicus VF5; K28E) (protein)
chain: MFVKLLPPEVRKVIAAGEVIESPVDVVEELVENSLDAKATKVEVEIVKGGKRLIRVKDNGTGIHPEDVEKVVLQGATSKIETEKDLMNISTYGFRGEALYSISSVSKFKLRSRFFQEKEGKEIEVEAGNILGTRRVGMPVGTEVEVRDLFFNLPVRRKFLKKEDTERRKVLELIKEYALTNPEVEFTLFSEGRETLKLKKSSLKERVEEVFQTKTEELYAEREGITLRAFVSRNQRQGKYYVFINKRPIQNKNLKEFLRKVFGYKTLVVLYAELPPFMVDFNVHPKKKEVNILKERKFLELVRELAGKEKPIVDIPLSQPVKTYKPTYEILGQMDETFILVKDSEYLYFVDQHLLEERINYEKLKDENLACRISVKAGQKLSEEKIRELIKTWRNLENPHVCPHGRPIYYKIPLREIYEKVGRNY
B10: full-length aqMutL (Aquifex aeolicus VF5; K79R) (protein)
chain: MFVKLLPPEVRKVIAAGEVIESPVDVVKELVENSLDAKATKVEVEIVKGGKRLIRVKDNGTGIHPEDVEKVVLQGATSRIETEKDLMNISTYGFRGEALYSISSVSKFKLRSRFFQEKEGKEIEVEAGNILGTRRVGMPVGTEVEVRDLFFNLPVRRKFLKKEDTERRKVLELIKEYALTNPEVEFTLFSEGRETLKLKKSSLKERVEEVFQTKTEELYAEREGITLRAFVSRNQRQGKYYVFINKRPIQNKNLKEFLRKVFGYKTLVVLYAELPPFMVDFNVHPKKKEVNILKERKFLELVRELAGKEKPIVDIPLSQPVKTYKPTYEILGQMDETFILVKDSEYLYFVDQHLLEERINYEKLKDENLACRISVKAGQKLSEEKIRELIKTWRNLENPHVCPHGRPIYYKIPLREIYEKVGRNY
B11: full-length aqMutL (Aquifex aeolicus VF5; N282A) (protein)
chain: MFVKLLPPEVRKVIAAGEVIESPVDVVKELVENSLDAKATKVEVEIVKGGKRLIRVKDNGTGIHPEDVEKVVLQGATSKIETEKDLMNISTYGFRGEALYSISSVSKFKLRSRFFQEKEGKEIEVEAGNILGTRRVGMPVGTEVEVRDLFFNLPVRRKFLKKEDTERRKVLELIKEYALTNPEVEFTLFSEGRETLKLKKSSLKERVEEVFQTKTEELYAEREGITLRAFVSRNQRQGKYYVFINKRPIQNKNLKEFLRKVFGYKTLVVLYAELPPFMVDFAVHPKKKEVNILKERKFLELVRELAGKEKPIVDIPLSQPVKTYKPTYEILGQMDETFILVKDSEYLYFVDQHLLEERINYEKLKDENLACRISVKAGQKLSEEKIRELIKTWRNLENPHVCPHGRPIYYKIPLREIYEKVGRNY
B12: full-length aqMutL (Aquifex aeolicus VF5; K287A) (protein)
chain: MFVKLLPPEVRKVIAAGEVIESPVDVVKELVENSLDAKATKVEVEIVKGGKRLIRVKDNGTGIHPEDVEKVVLQGATSKIETEKDLMNISTYGFRGEALYSISSVSKFKLRSRFFQEKEGKEIEVEAGNILGTRRVGMPVGTEVEVRDLFFNLPVRRKFLKKEDTERRKVLELIKEYALTNPEVEFTLFSEGRETLKLKKSSLKERVEEVFQTKTEELYAEREGITLRAFVSRNQRQGKYYVFINKRPIQNKNLKEFLRKVFGYKTLVVLYAELPPFMVDFNVHPKAKEVNILKERKFLELVRELAGKEKPIVDIPLSQPVKTYKPTYEILGQMDETFILVKDSEYLYFVDQHLLEERINYEKLKDENLACRISVKAGQKLSEEKIRELIKTWRNLENPHVCPHGRPIYYKIPLREIYEKVGRNY

Legend:
[1] = substrate: Nc1ncnc2c1ncn2[C@@H]1O[C@H](COP(=O)(O)OP(=O)(O)OP(=O)(O)O)[C@@H](O)[C@H]1O; test: phosphate release, BIOMOL Green; format: biochemical, Homo sapiens; conditions: 50 mM HEPES-KOH pH 7.5, 100 mM NaCl, 5 mM MgCl2, 37 °C
[2] = substrate: Nc1ncnc2c1ncn2[C@@H]1O[C@H](COP(=O)(O)OP(=O)(O)OP(=O)(O)O)[C@@H](O)[C@H]1O; test: phosphate release, BIOMOL Green; format: biochemical, Aquifex aeolicus; conditions: 50 mM HEPES-KOH pH 7.5, 100 mM NaCl, 5 mM MgCl2, 70 °C

Protein | Km [1] | kcat [1] | Km [2] | kcat [2]
B1 | 300 ± 42 µM | 0.000733 ± 2.83e-05 s⁻¹ |  | 
B2 | 160 ± 93 µM | 0.00105 ± 0.000135 s⁻¹ |  | 
B3 | 80 ± 12 µM | 0.000483 ± 3e-05 s⁻¹ |  | 
B4 | 750 ± 130 µM | 0.000333 ± 5e-05 s⁻¹ |  | 
B5 |  |  | 360 ± 190 µM | 0.025 ± 0.0025 s⁻¹
B6 |  |  | 250 ± 41 µM | 0.0367 ± 0.00217 s⁻¹
B7 | 190 ± 39 µM | 0.00617 ± 0.0003 s⁻¹ |  | 
B8 | 790 ± 75 µM | 0.00267 ± 0.000108 s⁻¹ |  | 
B9 |  |  | 900 ± 73 µM | 0.00733 ± 0.000367 s⁻¹
B10 |  |  | 610 ± 130 µM | 0.00283 ± 0.000233 s⁻¹
B11 |  |  | 560 ± 54 µM | 0.000483 ± 1.67e-05 s⁻¹
B12 |  |  | 370 ± 36 µM | 0.00767 ± 0.000383 s⁻¹
